From PMC12892918, “CoREST complex inhibition alters RNA splicing to promote neoantigen expression and enhance tumor immunity” (JCI Insight, 2025)

B1: His-tag U2AF2 fragment (aa 85–471), Cy5-labelled (domain or fragment)
chain: KKKVRKYWDVPPPGFEHITPMQYKAMQAAGQIPATALLPTMTPDGLAVTPTPVPVVGSQMTRQARRLYVGNIPFGITEEAMMDFFNAQMRLGGLTQAPGNPVLAVQINQDKNFAFLEFRSVDETTQAMAFDGIIFQGQSLKIRRPHDYQPLPGMSENPSVYVPGVVSTVVPDSAHKLFIGGLPNYLNDDQVKELLTSFGPLKAFNLVKDSATGLSKGYAFCEYVDINVTDQAIAGLNGMQLGDKKLLVQRASVGAKNATLVSPPSTINQTPVTLQVPGLMSSQVQMGGHPTEVLCLMNMVLPEELLDDEEYEEIVEDVRDECSKYGLVKSIEIPRPVDGVEVPGCGKIFVEFTSVFDCQKAMQGLTGRKFANRVVVTKYCDPDSYHR
modifications: Cy5 dye at lysine residues (reactive NHS-ester dye)
notes: U2AF2, aa 85-471; also called U2AF2 85–471; Fluor-U2AF2
B2: His-tag U2AF2 fragment (aa 241–471), Cy5-labelled (domain or fragment)
chain: NPSVYVPGVVSTVVPDSAHKLFIGGLPNYLNDDQVKELLTSFGPLKAFNLVKDSATGLSKGYAFCEYVDINVTDQAIAGLNGMQLGDKKLLVQRASVGAKNATLVSPPSTINQTPVTLQVPGLMSSQVQMGGHPTEVLCLMNMVLPEELLDDEEYEEIVEDVRDECSKYGLVKSIEIPRPVDGVEVPGCGKIFVEFTSVFDCQKAMQGLTGRKFANRVVVTKYCDPDSYHR
modifications: Cy5 dye at lysine residues (reactive NHS-ester dye)
notes: U2AF2, aa 241-471, composed of RRM2 and UHM; also called U2AF2 241–471; Fluor-U2AF2

Molecular target: LSD1 (aa 171–852) and RCOR1 (aa 286–485) complex (truncated LC) (UniProt O60341 171-852; Q9UKL0 286-485)
Assay: MST; Cy5-labelled His-tag U2AF2 fragments mixed with serially diluted truncated LSD1/RCOR1
Settings: both partners purified

Row | Binder | Kd
1 | B1 | 14 µM
2 | B2 | 16 µM
